Reference: US20170369545A1 (CENTRE NATIONAL DE LA RECHERCHE SCIENTIFIQUE, published 2017)

Tests used:
[1] = biological target: T1, tyrosine kinase receptor MET on HeLa cells (UniProt P08581 25-1390, limits assumed); assay: cell-based or functional assay
[2] = biological target: T1, tyrosine kinase receptor MET on HeLa …; assay: cell-based or functional assay; remark: listed apart in the source

T1 sequence (P08581 25-1390 limits assumed): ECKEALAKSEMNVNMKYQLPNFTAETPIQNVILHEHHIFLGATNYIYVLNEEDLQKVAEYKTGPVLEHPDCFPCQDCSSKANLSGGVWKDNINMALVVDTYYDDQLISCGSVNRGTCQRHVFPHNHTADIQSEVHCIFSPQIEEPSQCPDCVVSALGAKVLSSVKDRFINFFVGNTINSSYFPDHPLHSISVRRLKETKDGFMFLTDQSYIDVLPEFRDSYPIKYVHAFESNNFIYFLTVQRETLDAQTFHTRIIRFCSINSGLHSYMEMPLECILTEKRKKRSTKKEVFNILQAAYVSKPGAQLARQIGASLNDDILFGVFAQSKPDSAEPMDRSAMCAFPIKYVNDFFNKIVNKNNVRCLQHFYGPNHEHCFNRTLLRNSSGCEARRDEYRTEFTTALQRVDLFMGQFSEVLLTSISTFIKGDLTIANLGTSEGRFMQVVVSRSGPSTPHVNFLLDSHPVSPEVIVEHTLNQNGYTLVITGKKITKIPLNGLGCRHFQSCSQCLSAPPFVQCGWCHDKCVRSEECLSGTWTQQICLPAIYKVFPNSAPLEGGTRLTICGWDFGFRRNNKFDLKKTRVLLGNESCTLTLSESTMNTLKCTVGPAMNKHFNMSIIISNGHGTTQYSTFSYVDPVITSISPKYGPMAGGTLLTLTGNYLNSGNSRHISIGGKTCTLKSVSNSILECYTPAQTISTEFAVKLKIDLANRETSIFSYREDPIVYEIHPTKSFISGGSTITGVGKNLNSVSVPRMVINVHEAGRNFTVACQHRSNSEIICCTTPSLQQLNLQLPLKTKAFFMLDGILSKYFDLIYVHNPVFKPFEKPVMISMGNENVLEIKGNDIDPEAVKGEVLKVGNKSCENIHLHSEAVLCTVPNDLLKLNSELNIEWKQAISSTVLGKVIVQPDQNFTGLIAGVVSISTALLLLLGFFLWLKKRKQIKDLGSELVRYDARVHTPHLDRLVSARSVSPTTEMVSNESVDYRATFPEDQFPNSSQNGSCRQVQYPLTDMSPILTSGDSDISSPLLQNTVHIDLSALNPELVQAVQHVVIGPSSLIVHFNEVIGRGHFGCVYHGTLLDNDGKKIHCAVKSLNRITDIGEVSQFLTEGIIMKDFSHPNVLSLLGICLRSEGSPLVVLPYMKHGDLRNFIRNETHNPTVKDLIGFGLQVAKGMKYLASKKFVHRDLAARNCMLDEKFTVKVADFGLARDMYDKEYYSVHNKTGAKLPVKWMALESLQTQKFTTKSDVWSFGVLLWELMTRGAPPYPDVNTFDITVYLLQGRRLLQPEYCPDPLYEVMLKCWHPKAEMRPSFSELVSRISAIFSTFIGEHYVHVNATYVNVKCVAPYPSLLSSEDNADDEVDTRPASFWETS

Row | Binder | EC50 (read off the curve), Akt phosphorylation (P-AKT) [P-AKT] [1] [nM] | EC50 (read off the curve), ERK phosphorylation (P-ERK) [P-ERK] [1] [nM] | ERK and Akt phosphorylation in HeLa cells (western blot, ALPHAScreen) [2] [pM] | MET phosphorylation in HeLa cells (western blot) [2] [pM] | agonist activity against NK1 (ERK and Akt phosphorylation in HeLa cells) [2]
1 | HGF/SF-K1K1 (C-terminally tagged K1K1 protein, 6xHis tag) (designed binder) MAIRNCIIGKGRSYKGTVSITKSGIKCQPWSSMIPHEHSFLPSSYRGKDLQENYCRNPRGEEGGPWCFTSNPEVRYEVCDIPQCSEVECIIGKGRSYKGTVSITKSGIKCQPWSSMIPHEHSFLPSSYRGKDLQENYCRNPRGEEGGPWCFTSNPEVRYEVCDIPQCSEVEHHHHHH | ~0.03 | ~0.03 | ~100 | 100 | ≥ 10 times (against NK1)
2 | K1K1 variant 3 (GS-linker variant) (designed binder) MAIRNCIIGKGRSYKGTVSITKSGIKCQPWSSMIPHEHSFLPSSYRGKDLQENYCRNPRGEEGGPWCFTSNPEVRYEVCDIPQCGSGGCIIGKGRSYKGTVSITKSGIKCQPWSSMIPHEHSFLPSSYRGKDLQENYCRNPRGEEGGPWCFTSNPEVRYEVCDIPQCSEVE |  |  | ~100 | 100 | ≥ 10 times (against NK1)
3 | K1K1 variant 1 (tagless variant) (designed binder) MAIRNCIIGKGRSYKGTVSITKSGIKCQPWSSMIPHEHSFLPSSYRGKDLQENYCRNPRGEEGGPWCFTSNPEVRYEVCDIPQCSEVECIIGKGRSYKGTVSITKSGIKCQPWSSMIPHEHSFLPSSYRGKDLQENYCRNPRGEEGGPWCFTSNPEVRYEVCDIPQCSEVE |  |  | ~100 | 100 | ≥ 10 times (against NK1)
4 | K1K1 variant 2 (long linker variant) (designed binder) MAIRNCIIGKGRSYKGTVSITKSGIKCQPWSSMIPHEHSFLPSSYRGKDLQENYCRNPRGEEGGPWCFTSNPEVRYEVCDIPQCGGGGSLVPRGSGGGGSCIIGKGRSYKGTVSITKSGIKCQPWSSMIPHEHSFLPSSYRGKDLQENYCRNPRGEEGGPWCFTSNPEVRYEVCDIPQCSEVE |  |  | ~100 | 100 | ≥ 10 times (against NK1)
